Patent US20220396819A1, “METHOD FOR PRODUCING PEPTIDE HAVING PHYSIOLOGICAL ACTIVITY, AND PEPTIDE COMPRISING SHORT LINKER” (priority 2019, published 2022)
Positions of bridges follow the written chain, without caps; N, C: chain ends. No end group written: not given here.

How the values were obtained:
[1] = target: T1, VEGFR (Homo sapiens, UniProt P35968); experiment: VEGF inhibitory ability, luciferase assay in VEGFR/NFAT Reporter HEK293 cells; format: cell-based
T1 construct: host or cells: VEGFR/NFAT Reporter HEK293 cells
Experimental: The VEGF inhibitory ability of the VEGFR_D2-PAS heterodimer peptide was evaluated by luciferase assay. 40,000 cell/well VEGFR/NFAT Reporter HEK293 cells (BPS Bioscience) were seeded and incubated overnight in a 5% CO2 incubator at 37° C. The cells were incubated overnight in Assay medium (MEM medium (Nacalai Tesque), 1×MEM Non-Essential Amino Acids Solution (Thermo Fisher Scientific), 1 mM Sodium Pyruvate (Nacalai Tesque), 1% Penicillin-Streptomycin (Sigma Aldrich), and 0.3% FBS (Thermo Fisher Scientific)) to starvation. […] The cells were stimulated by culturing in a 5% CO2 incubator at 37° C. for 4 hours.
One-Glo Luciferase Assay System (Promega) was used to detect the signal intensity. Medium supernatant in an amount of 50 μL was removed, 50 μL of One-Glo reagent was added, and the cells were lysed for 10 minutes at room temperature. The luminescence emitted from the cell lysate solution was detected with a Nivo plate reader (Perkin Elmer) to quantify the activation of the VEGFR-NFAT pathway, and the relative signal activity value for the sample without addition of evaluation compound was determined and used as relative receptor activity.
The VEGF inhibitory ability of the cell-free expressed VEGFR_D2-PAS heterodimer peptide was evaluated by luciferase assay. 40,000 cell/well VEGFR/NFAT Reporter HEK293 cells (BPS Bioscience) were seeded and incubated overnight in a 5% CO2 incubator at 37° C. The cells were incubated overnight in Assay medium (MEM medium (Nacalai Tesque), 1×MEM Non-Essential Amino Acids Solution (Thermo Fisher Scientific), 1 mM Sodium Pyruvate (Nacalai Tesque), 1% Penicillin-Streptomycin (Sigma Aldrich), and 0.3% FBS (Thermo Fisher Scientific)) to starvation. To the Assay medium, 100 μL of 10 ng/mL human recombinant VEGF (R&D Systems) was added, and further, MAET-VEGFR_D2-PAS16, MAET-VEGFR_D2-PAS49-b, MAET-VEGFR_D2-PAS100-b, or a cell-free expression solution containing MAET-VEGFR_D2-GS16, or a cell-free expression solution with unexpressed peptide was added at a predetermined dilution factor, and 100 μL of the Assay medium was added to the cells. The cells were stimulated by culturing in a 5% CO2 incubator at 37° C. for 4 hours.
The VEGF inhibitory ability of the VEGFR_D2-PAS heterodimer peptide linker variant was evaluated by luciferase assay. 40,000 cell/well VEGFR/NFAT Reporter HEK293 cells (BPS Bioscience) were seeded and incubated overnight in a 5% CO2 incubator at 37° C. The cells were incubated overnight in Assay medium (MEM medium (Nacalai Tesque), 1×MEM Non-Essential Amino Acids Solution (Thermo Fisher Scientific), 1 mM Sodium Pyruvate (Nacalai Tesque), 1% Penicillin-Streptomycin (Sigma Aldrich), and 0.3% FBS (Thermo Fisher Scientific)) to starvation. To the Assay medium, 10 ng/mL human recombinant VEGF (R&D Systems) was added, and further, a culture supernatant containing VEGFR_D2-PAS16, VEGFR_D2-PAS49, or VEGFR_D2-PAS100 at a predetermined concentration was added, and 100 μL of the Assay medium was added to the cells. The cells were stimulated by culturing in a 5% CO2 incubator at 37° C. for 4 hours. Note that VEGFR_D2-PAS16 was obtained according to the method described in Example 27.

[2] = target: T2, Met (Homo sapiens, UniProt P08581); experiment: Met activation ability, SRE luciferase assay in HEK293E cells (HGF-Erk-SRE pathway); format: cell-based; details: for Met activation ability: Example 37, cell-free translation solution diluted, FIG. 69
T2 construct: endogenous in cells; host or cells: HEK293E
Experimental: (§1) The Met activation ability of the HGF-PAS dimer peptide was evaluated by luciferase assay. To 25 μL of Opti-MEM medium (Thermo Fisher Scientific), 0.6 μL of Attractene Transfection Reagent (QIAGEN) was added, and the mixture was incubated at room temperature for 5 minutes. To the above mixed solution, a mixed solution of 25 μL of Opti-MEM and 1 μL of SRE reporter vector (QIAGEN) was added, and the mixture was incubated at room temperature for 20 minutes. This mixed solution was added to a 96-well plate, over which 40,000 cell/well HEK293E cells were seeded and incubated overnight in a 5% CO2 incubator at 37° C. After transfection, all culture supernatant was removed, 100 μL of Opti-MEM medium (evaluation basal medium) containing 0.5% FBS (Thermo Fisher Scientific), 1% non-essential amino acid solution (Thermo Fisher Scientific), and penicillin-streptomycin (Nacalai Tesque) was added, and incubation was performed at 37° C. for 4 hours, and thereby the cells were starved.
To the evaluation basal medium, 0 to 200 ng/mL HGF was added, or 0 to 800 ng/mL AET-PAS-aMD4dY-PEG11, AET-PAS-aMD4-PEG11, or AET-PAS-aMD4-PEG3 was added, or a culture supernatant containing PAS-aMD4dY-PEG11, PAS-aMD4-PEG11, or PAS-aMD4-PEG3 was added so as to be diluted 10-fold with respect to the medium, and the evaluation basal medium was added in an amount of 100 μL to the cells. The cells were stimulated by culturing overnight in a 5% CO2 incubator at 37° C.
The signal intensities were detected using Dual-Luciferase Reporter Assay System (Promega). The medium supernatant in an amount of 100 μL was removed, 50 μL of Glo reagent was added, and the cells were lysed for 10 minutes at room temperature. The luminescence of Firefly luciferase emitted from the cell lysate solution was detected with a plate reader to quantify the activation of the HGF-Erk-SRE pathway. Subsequently, 50 μL of Glo & Stop reagent solution was added, and after 10 minutes, the luminescence of the internal standard Renilla luciferase was detected to quantify the number of cells. The signal activity of each sample was quantified as SRE activity=(Firefly luciferase luminescence intensity)/(Renilla luciferase luminescence intensity). The relative signal activity values for the samples without addition of the evaluation compound were determined and used as relative receptor activity.
as §1, with “peptide linker variant” for “peptide”, “0.6 L” for “0.6 μL”
To the evaluation basal medium, 0 to 100 ng/mL HGF was added, or a culture supernatant containing AET-aMD4dY-PAS8, AET-aMD4dY-PAS22 (the same molecule as AET-PAS-aMD4dY-PEG11), AET-aMD4dY-PAS49, AET-aMD4dY-PAS100, AET-aMD4dY-PAS200, AET-aMD4dY-GS15, or AET-aMD4dY-GS22 was added to the medium so as to be diluted at a predetermined ratio, and the evaluation basal medium was added in an amount of 100 μL to the cells. The cells were stimulated by culturing overnight in a 5% CO2 incubator at 37° C.
The Met activation ability of the stabilized HGF-PAS dimer peptide was evaluated by luciferase assay. […]

[3] = target: Met (HGF receptor) (UniProt P08581 25-1390, limits assumed); experiment: cell-based or functional assay
Met (HGF receptor), sequence (P08581 25-1390 limits assumed): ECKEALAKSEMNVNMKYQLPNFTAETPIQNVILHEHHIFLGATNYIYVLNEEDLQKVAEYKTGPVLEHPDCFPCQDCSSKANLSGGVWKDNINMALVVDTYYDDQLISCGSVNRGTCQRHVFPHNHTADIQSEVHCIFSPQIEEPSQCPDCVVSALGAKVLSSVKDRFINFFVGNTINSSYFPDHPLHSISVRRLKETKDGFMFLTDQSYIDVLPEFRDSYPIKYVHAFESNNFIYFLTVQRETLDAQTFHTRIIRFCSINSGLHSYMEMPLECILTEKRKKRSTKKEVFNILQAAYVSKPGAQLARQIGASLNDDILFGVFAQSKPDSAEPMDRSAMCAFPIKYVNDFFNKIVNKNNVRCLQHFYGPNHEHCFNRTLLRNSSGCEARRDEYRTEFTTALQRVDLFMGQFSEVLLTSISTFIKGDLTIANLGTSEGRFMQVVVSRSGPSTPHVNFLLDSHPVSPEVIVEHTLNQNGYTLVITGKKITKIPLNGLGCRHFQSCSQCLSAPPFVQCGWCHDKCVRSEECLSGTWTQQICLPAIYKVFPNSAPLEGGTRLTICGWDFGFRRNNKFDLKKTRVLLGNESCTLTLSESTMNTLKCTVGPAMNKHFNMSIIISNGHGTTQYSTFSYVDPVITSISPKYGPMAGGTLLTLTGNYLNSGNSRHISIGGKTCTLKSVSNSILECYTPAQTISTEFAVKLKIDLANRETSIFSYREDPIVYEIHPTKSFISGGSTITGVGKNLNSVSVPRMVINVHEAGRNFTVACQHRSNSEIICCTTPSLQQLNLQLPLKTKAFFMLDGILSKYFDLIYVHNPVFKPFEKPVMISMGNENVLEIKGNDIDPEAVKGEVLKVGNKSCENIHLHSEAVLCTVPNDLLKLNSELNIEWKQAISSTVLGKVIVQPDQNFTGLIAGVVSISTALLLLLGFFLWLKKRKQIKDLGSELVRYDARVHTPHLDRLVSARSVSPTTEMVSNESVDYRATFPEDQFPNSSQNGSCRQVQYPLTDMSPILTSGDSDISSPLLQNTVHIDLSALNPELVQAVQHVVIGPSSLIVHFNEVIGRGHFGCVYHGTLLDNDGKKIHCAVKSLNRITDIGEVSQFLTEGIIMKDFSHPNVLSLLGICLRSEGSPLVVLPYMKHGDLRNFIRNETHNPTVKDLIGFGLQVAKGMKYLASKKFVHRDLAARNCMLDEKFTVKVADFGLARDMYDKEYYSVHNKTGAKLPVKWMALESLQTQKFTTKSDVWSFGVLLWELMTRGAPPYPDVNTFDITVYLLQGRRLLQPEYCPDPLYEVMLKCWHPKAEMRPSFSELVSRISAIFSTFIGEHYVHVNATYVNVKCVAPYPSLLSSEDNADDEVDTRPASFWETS

T1 sequence (P35968 20-1356): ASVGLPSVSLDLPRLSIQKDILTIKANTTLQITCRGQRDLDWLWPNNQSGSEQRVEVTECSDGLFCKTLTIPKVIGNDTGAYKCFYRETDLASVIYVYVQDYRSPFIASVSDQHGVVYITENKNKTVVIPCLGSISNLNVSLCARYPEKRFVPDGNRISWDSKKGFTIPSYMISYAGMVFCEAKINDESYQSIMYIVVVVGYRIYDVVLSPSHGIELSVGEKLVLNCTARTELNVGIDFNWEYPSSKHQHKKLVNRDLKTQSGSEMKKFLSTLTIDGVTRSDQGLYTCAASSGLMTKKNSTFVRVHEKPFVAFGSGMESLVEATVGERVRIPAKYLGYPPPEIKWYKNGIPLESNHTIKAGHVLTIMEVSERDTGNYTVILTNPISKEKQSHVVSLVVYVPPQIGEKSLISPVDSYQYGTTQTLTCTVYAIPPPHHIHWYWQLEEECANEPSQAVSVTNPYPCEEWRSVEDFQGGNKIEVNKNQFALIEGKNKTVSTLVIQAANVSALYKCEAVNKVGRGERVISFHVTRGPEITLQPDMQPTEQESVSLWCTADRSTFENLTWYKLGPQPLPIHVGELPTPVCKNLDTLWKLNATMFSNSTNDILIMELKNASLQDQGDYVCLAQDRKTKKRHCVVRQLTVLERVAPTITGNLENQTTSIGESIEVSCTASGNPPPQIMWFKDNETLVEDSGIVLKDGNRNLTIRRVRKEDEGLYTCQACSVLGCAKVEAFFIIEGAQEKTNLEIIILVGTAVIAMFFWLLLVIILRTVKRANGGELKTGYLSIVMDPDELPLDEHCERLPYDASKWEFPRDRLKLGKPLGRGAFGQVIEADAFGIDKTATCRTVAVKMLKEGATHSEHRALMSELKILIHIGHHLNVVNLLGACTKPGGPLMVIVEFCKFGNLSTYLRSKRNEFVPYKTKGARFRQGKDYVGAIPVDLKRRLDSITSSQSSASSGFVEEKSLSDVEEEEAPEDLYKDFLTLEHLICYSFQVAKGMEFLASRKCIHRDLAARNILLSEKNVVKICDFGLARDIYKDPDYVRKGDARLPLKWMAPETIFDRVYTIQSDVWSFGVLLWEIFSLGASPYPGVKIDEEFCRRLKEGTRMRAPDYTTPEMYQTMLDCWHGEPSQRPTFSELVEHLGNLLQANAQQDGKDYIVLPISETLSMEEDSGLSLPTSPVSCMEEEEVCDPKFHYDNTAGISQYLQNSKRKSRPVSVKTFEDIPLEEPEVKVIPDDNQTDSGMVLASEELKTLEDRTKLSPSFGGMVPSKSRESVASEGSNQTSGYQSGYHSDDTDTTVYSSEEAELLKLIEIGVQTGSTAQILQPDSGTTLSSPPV
T2 sequence (P08581 25-1390): as the sequence (P08581 25-1390 limits assumed) above

AETAGPTWCEDDWYYCWLFGTAAPAAPAPAAPAAPAPAAPAAPAPAAPAAPAPAAPAAPAPAAPAAPAPAVCWEDSWGGEVCWLFGT (disulfide 9-16, 72-82) [AET-VEGFR_D2-PAS49]
IC50 [1]: 1.43 nM

AETAGPTWCEDDWYYCWLFGTAAPAAPAPAAPAAPAPVCWEDSWGGEVCWLFGT (disulfide 9-16, 39-49) [AET-VEGFR_D2-PAS16]
IC50 [1]: 0.26 nM | VEGF inhibitory activity (relative VEGF activity) ([1]; Example 29, purified by HPLC, 10 ng/mL VEGF, 4 hours, FIG. 47): higher inhibitory activity than the monomer peptides P3 and Pm4

AETAGPTWCEDDWYYCWLFGTGGGGSGGGGSGGGGSGVCWEDSWGGEVCWLFGT (disulfide 9-16, 39-49) [AET-VEGFR_D2-GS16]
IC50 [1]: 2.93 nM

CRQFNRRTHEVWNLDC (disulfide 1-16) [aMD4dY, reference compound]
signal activation ability, dimer versus monomer ([2]; Example 43, FIG. 76): showed no signal activation ability

CRQFNRRTHEVWNLDCGAAPAAPAPAAPAAPAPAAPAAPGCRQFNRRTHEVWNLDC (disulfide 1-16, 41-56; also: PEG11) [PAS-aMD4dY-PEG11]
maximum activity compared with HGF ([2]; Example 6, AET form 0 to 800 ng/mL, PAS form culture supernatant diluted 10-fold): comparable to 100 ng/mL HGF

MAETCRQFNRRTHEVWNLDCGAAPAAPAPAAPAAPAPAAPAAPGCRQFNRRTHEVWNLDC (disulfide 5-20, 45-60) [MAET-aMD4dY-PAS22]
Met activation ability [2]: had Met activation ability

MAETCRQFNRRTHEVWNLDCGAAPAAPAPGCRQFNRRTHEVWNLDC (disulfide 5-20, 31-46) [MAET-aMD4dY-PAS8]
Met activation ability [2]: had Met activation ability

B1: AET-aMD4dY-PAS200 (peptide)
peptide: AETCRQFNRRTHEVWNLDCGAAPAAPAPAAPAAPAPAAPAAPAPAAPAAPAPAAPAAPAPAAPAAPAPAAPAAPAPAAPAAPAPAAPAAPAPAAPAAPAPAAPAAPAPAAPAAPAPAAPAAPAPAAPAAPAPAAPAAPAPAAPAAPAPAAPAAPAPAAPAAPAPAAPAAPAPAAPAAPAPAAPAAPAPAAPAAPAPAAPAAPAPAAPAAPAPAAPAAPAPGCRQFNRRTHEVWNLDC
modifications: two disulfide bonds in the molecule
Emax (%) [3]: 20.4%

B2: AET-aMD4dY-GS15 (peptide)
peptide: AETCRQFNRRTHEVWNLDCGGGGGSGGGGSGGGGSGCRQFNRRTHEVWNLDC
modifications: disulfide 4-19, 37-52
Emax (%) [3]: 45.8%

B3: AET-PAS-aMD4dY-PEG11 (peptide)
peptide: AETCRQFNRRTHEVWNLDCGAAPAAPAPAAPAAPAPAAPAAPGCRQFNRRTHEVWNLDC
modifications: disulfide 4-19, 44-59; also: PEG11 in name, stated same as AET-aMD4dY-PAS22
Emax (%) [3]: 100%

B4: AET-aMD4dY-GS22 (peptide)
peptide: AETCRQFNRRTHEVWNLDCGGGGGSGGGGSGGGGSGGGGSGGGCRQFNRRTHEVWNLDC
modifications: disulfide 4-19, 44-59
Emax (%) [3]: 32.3%

B5: AETCRQFNRRTHEVWNLDCGAAPAAPAPAAPAAPAPAAPAAPGCRQFNRRTHEVWNLDCGAAPAAPAPAAPAAPAPAAPAAPGCRQFNRRTHEVWNLDC (peptide)
chain: AETCRQFNRRTHEVWNLDCGAAPAAPAPAAPAAPAPAAPAAPGCRQFNRRTHEVWNLDCGAAPAAPAPAAPAAPAPAAPAAPGCRQFNRRTHEVWNLDC
modifications: AET-aMD4dY-PAS22-Trimer; DISULFID (4)..(19) Disulfid bridge between Cys-4 and Cys-19; DISULFID (44)..(59) Disulfid bridge between Cys-44 and Cys-59; DISULFID (84)..(99) Disulfid bridge between Cys-84 and Cys-99
signal activation ability, trimer versus dimer ([2]; Example 42, culture supernatant diluted, FIG. 75): signal activation ability similar to the dimer peptide

B6: MAETCYRQFNRRTHEVWNLDCGAAPAAPAPAAPAAPAPAAPAAPGCRQFNRRTHEVWNLDC (peptide)
chain: MAETCYRQFNRRTHEVWNLDCGAAPAAPAPAAPAAPAPAAPAAPGCRQFNRRTHEVWNLDC
modifications: disulfide 5-21, 46-61
Met activation ability [2]: had Met activation ability

B7: AET-aMD4dY-PAS100 (peptide)
peptide: AETCRQFNRRTHEVWNLDCGAAPAAPAPAAPAAPAPAAPAAPAPAAPAAPAPAAPAAPAPAAPAAPAPAAPAAPAPAAPAAPAPAAPAAPAPAAPAAPAPAAPAAPAPAAPAAPAPAAPAGCRQFNRRTHEVWNLDC
modifications: two disulfide bonds in the molecule
Emax (%) [3]: 47.2%

B8: AET-aMD4dY-PAS49 (peptide)
peptide: AETCRQFNRRTHEVWNLDCGAAPAAPAPAAPAAPAPAAPAAPAPAAPAAPAPAAPAAPAPAAPAAPAPAGCRQFNRRTHEVWNLDC
modifications: two disulfide bonds in the molecule
Emax (%) [3]: 82.8%

AETCRQFNRRTHEVWNLDCGAAPAAPAPGCRQFNRRTHEVWNLDC (disulfide 4-19, 30-45) [AET-aMD4dY-PAS8]
Emax (%) [3]: 56.4%
